Literature values, collected in article PMC2635555.

Biological target: Histone H3 (H3K4me0) N-terminal tail (Homo sapiens) (UniProt P68431)

Sequence of AIRE PHD1 (O43918 296-343): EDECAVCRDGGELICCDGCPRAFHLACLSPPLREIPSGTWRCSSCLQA

Substance: AIRE PHD1 (from UniProt O43918)
- Kd: 5 µM
